This data set concerns THP-1 cells. Put plainly: Integration and expression of HER2 binder-T2A-GFP cargo after LINE-1 plasmid electroporation. Type of data set: cell-based. Conditions: 3.7 kb cargo, day 6 post transfection, FIG. 18B. The text has this: Next, THP-1 cells (a myeloid, monocytic cell line) were electroporated with a plasmid having LINE-1 sequences and a 3.7 kb cargo encoding a chimeric HER-2 binding receptor, and a split GFP (LINE-1 plasmid Her2-Cd3z-T2A-GFPintron) (FIG. 18A). The cargo is a chimeric receptor that comprises a HER2 binding extracellular domain, a CD3z transmembrane domain, and split GFP reporter. […] Moreover, unlike CRISPR dependent technologies such as Prime editing, retrotransposition can result in integration of large genetic cargo, and, these can be delivered as a single nucleic acid construct.

B1: LINE-1 plasmid Her2-Cd3z-T2A-GFPintron: LINE-1 plasmid with cargo encoding chimeric HER-2 binding receptor and split GFP (SEQ ID NO: 41) (nucleic acid)
DNA: CGGCCGCGGGGGGAGGAGCCAAGATGGCCGAATAGGAACAGCTCCGGTCTACAGCTCCCAGCGTGAGCGACGCAGAAGACGGTGATTTCTGCATTTCCATCTGAGGTACCGGGTTCATCTCACTAGGGAGTGCCAGACAGTGGGCGCAGGCCAGTGTGTGTGCGCACCGTGCGCGAGCCGAAGCAGGGCGAGGCATTGCCTCACCTGGGAAGCGCAAGGGGTCAGGGAGTTCCCTTTCCGAGTCAAAGAAAGGGGTGACGGACGCACCTGGAAAATCGGGTCACTCCCACCCGAATATTGCGCTTTTCAGACCGGCTTAAGAAACGGCGCACCACGAGACTATATCCCACACCTGGCTCGGAGGGTCCTACGCCCACGGAATCTCGCTGATTGCTAGCACAGCAGTCTGAGATCAAACTGCAAGGCGGCAACGAGGCTGGGGGAGGGGCGCCCGCCATTGCCCAGGCTTGCTTAGGTAAACAAAGCAGCAGGGAAGCTCGAACTGGGTGGAGCCCACCACAGCTCAAGGAGGCCTGCCTGCCTCTGTAGGCTCCACCTCTGGGGGCAGGGCACAGACAAACAAAAAGACAGCAGTAACCTCTGCAGACTTAAGTGTCCCTGTCTGACAGCTTTGAAGAGAGCAGTGGTTCTCCCAGCACGCAGCTGGAGATCTGAGAACGGGCAGACTGCCTCCTCAAGTGGGTCCCTGACCCCTGACCCCCGAGCAGCCTAACTGGGAGGCACCCCCCAGCAGGGGCACACTGACACCTCACACGGCAGGGTATTCCAACAGACCTGCAGCTGAGGGTCCTGTCTGTTAGAAGGAAAACTAACAACCAGAAAGGACATCTACACCGAAAACCCATCTGTACATCACCATCATCAAAGACCAAAAGTAGATAAAACCACAAAGATGGGGAAAAAACAGAACAGAAAAACTGGAAACTCTAAAACGCAGAGCGCCTCTCCTCCTCCAAAGGAACGCAGTTCCTCACCAGCAACAGAACAAAGCTGGATGGAGAATGATTTTGATGAGCTGAGAGAAGAAGGCTTCAGACGATCAAATTACTCTGAGCTACGGGAGGACATTCAAACCAAAGGCAAAGAAGTTGAAAACTTTGAAAAAAATTTAGAAGAATGTATAACTAGAATAACCAATACAGAGAAGTGCTTAAAGGAGCTGATGGAGCTGAAAACCAAGGCTCGAGAACTACGTGAAGAATGCAGAAGCCTCAGGAGCCGATGCGATCAACTGGAAGAAAGGGTATCAGCAATGGAAGATGAAATGAATGAAATGAAGCGAGAAGGGAAGTTTAGAGAAAAAAGAATAAAAAGAAATGAGCAAAGCCTCCAAGAAATATGGGACTATGTGAAAAGACCAAATCTACGTCTGATTGGTGTACCTGAAAG
Regarding B1, the “genomic integration and expression of cargo” value is “successfully integrated into the genome and showed prolonged expression”.
